Reference: paper PMC3110755, “Inhibition of Cell Proliferation by an Anti-EGFR Aptamer”

Columns and labels:
ErbB2 (human) = ErbB2 (human) (Homo sapiens (Human), UniProt P04626 23-652); test: filter; 10 nM RNA, 100 nM protein, DPBS 5 mM MgCl2, 25 C; conditions: label: internal alpha-32P
[1] = biological target: EGFR ectodomain-Fc (human) (Homo sapiens (Human), UniProt P00533 25-645); test: filter; DPBS, 5 mM MgCl2, 25 C, 30 min; 0.1 nM RNA; conditions: tags: Fc fusion (R&D Systems); label: 5'-32P

B1: E03 (ssRNA)
RNA: GGCGCUCCGACCUUAGUCUCUGUGCUAGUAUAUCGCACGGAUUUAAUCGCCGUAGAAAAGCAUGUCAAAGCCGGAACCGUGUAGCACAGCAGA
modifications: 2'-F pyrimidines
Question: Which results are given for B1?
Answer: binding result (ErbB2 (human)): no binding; Kd [1]: ~2.45 nM

B2: E07 (ssRNA)
RNA: GGCGCUCCGACCUUAGUCUCUGUGCCGCUAUAAUGCACGGAUUUAAUCGCCGUAGAAAAGCAUGUCAAAGCCGGAACCGUGUAGCACAGCAGA
modifications: 2'-F pyrimidines
Question: Does B2 bind (ErbB2 (human))?
Answer: Result: no binding
